Measurements as given in PMC9485241, “Biosynthesis of plant hemostatic dencichine in Escherichia coli” (Nature Communications, 2022).

Key:
Experiment in all cases: purified protein
[1] = test system: O=C(O)CC(=O)C(=O)O; details: 0.18 mM MnCl2, 100 mM Tris-HCl pH 8.0
[2] = test system: NC[C@H](N)C(=O)O; details: oxalyl-CoA made in situ by excess PanE from 1 mM CoA, 1 mM NADP+, 1 mM glyoxylate, 50 mM Tris-HCl pH 7.5, 30 °C
[3] = substrate: O=CC(=O)O; format: biochemical, Saccharomyces cerevisiae; details: 2 mM cytochrome c, 100 mM sodium phosphate pH 7.5

Molecule Fpoah (Fomitopsis palustris) has a Km [1] of 420 µM and a Vmax [1] of 22.8 µM/min/mg.

Work on LsBAHD (Lathyrus sativus) yielded a Km [2] of 520 µM and a Vmax [2] of 2.88 µM/min/mg.

B1: Scgloxdh (Cyb2p) (Saccharomyces cerevisiae S288C) (protein)
chain: EPKLDMNKQKISPAEVAKHNKPDDCWVVINGYVYDLTRFLPNHPGGQDVIKFNAGKDVTAIFEPLHAPNVIDKYIAPEKKLGPLQGSMPPELVCPPYAPGETKEDIARKEQLKSLLPPLDNIINLYDFEYLASQTLTKQAWAYYSSGANDEVTHRENHNAYHRIFFKPKILVDVRKVDISTDMLGSHVDVPFYVSATALCKLGNPLEGEKDVARGCGQGVTKVPQMISTLASCSPEEIIEAAPSDKQIQWYQLYVNSDRKITDDLVKNVEKLGVKALFVTVDAPSLGQREKDMKLKFSNTKAGPKAMKKTNVEESQGASRALSKFIDPSLTWKDIEELKKKTKLPIVIKGVQRTEDVIKAAEIGVSGVVLSNHGGRQLDFSRAPIEVLAETMPILEQRNLKDKLEVFVDGGVRRGTDVLKALCLGAKGVGLGRPFLYANSCYGRNGVEKAIEILRDEIEMSMRLLGVTSIAELKPDLLDLSTLKARTVGVPNDVLYNEVYEGPTLTEFEDA
With B1 the Km [3] was 740 µM and the Vmax [3] was 0.66 µM/min/mg.
